Measured values reported in patent US20260176377A1 (Hoffmann-La Roche, published 2026).

Molecular target: T1, extracellular domain (ECD) of human IL-7Rα fused to biotinylated Fc knob-into-hole (P1AI1009) (human, UniProt P0DOX5 223-448 = IgG part, biotinylated at C-terminal AviTag)
T1 construct: also called human IL-7Rα-Fc; human IL-7Rα antigen
Assay: ELISA, soluble VHH supernatants on neutravidin plates with biotinylated IL-7Rα-Fc versus biotinylated Fc, anti-His-HRP
Experimental: Round 3 and round 4 enrichment libraries were screened for target specificity vs Fc specificity by ELISA. Individual VHH clones were expressed in 1 ml E. coli cultures in a 96-well plate and supernatants containing soluble VHH were screened for specificity by ELISA. Supernatants were transferred to neutravidin 96-well plates coated with biotinylated Fc (P1AE6073) or target Fc-tagged biotinylated antigen (P1AI1009). Following incubation for 1 hour at 20° C., plates were washed 3 times with PBST and 3 times with PBS. HRP-conjugated anti-His antibody (Sigma, Cat. No: A7058) was added to wells at 1:2000 dilution and plates were incubated for 1 hour at 20° C. Plates were washed 3 times with PBST followed by 3 washes with PBS. Plates were developed by adding 1-Step Ultra TMB-ELISA substrate (Thermo Fisher Scientific, Cat. No: 34028) and reactions were quenched with sulfuric acid. Absorbance at 450 nm was measured using a Tecan infinite M1000 Pro and reference absorbance values were measured at 650 nm. Reference-subtracted absorbance values at 450 nm were represented as stacked bar charts for round 3 library 1 and library 2 (FIG. 40A and B, respectively) and round 4 library 1 and library 2 (FIG. 40C and D, respectively). […] 16 target-specific VHH were selected and subsequently cloned into bispecific heavy chain antibody formats.

binding result	Binder
binds	IL-7Rα_4 VHH (VHH, soluble VHH, detected with anti-His antibody) VHH: QVQLVESGGGLVQPGGSLRLSCTTSGFTFTTYAMKWVRQAPGKGLEWVAFISPAGGITDYADSVKGRFTISRDNAKETLYLRMDSLKPEDTAVYYCARGDSDTNNNRGQGTQVTVSS
binds	IL-7Rα_2 VHH (VHH, soluble VHH, detected with anti-His antibody) VHH: QVQLVESGGGLVQPGGSLRLSCEVSGIRFSLRNMHWYRQASGRQREWVATITAGGVTGYRDSVKGRFTISRDNAKNTVDLQMNGLQLEDTAVYYCNHGDTAYWGQGTQVTVSS
binds	IL-7Rα_13 VHH (VHH, soluble VHH, detected with anti-His antibody) VHH: QVQLVESGGGLVRPGGSLRLACAASGIRFSLRNMHWYRQASGRQREWVATITAGGVTGYRDSVKGRFTISRDNAKNTVDLQMNGLQLEDTAVYYCNHGDTAYWGQGTQVTVSS
binds	IL-7Rα_7 VHH (VHH, soluble VHH, detected with anti-His antibody) VHH: QVQLVESGGGLVQPGGSLRLSCAASGFTFSNYAMSWYRQAPGKERELVASISVFGGGTNYADSVKGRFTISRDNAKNTVYLQMNSLKPEDSAVYYCNKRRYDDYWGQGTQVTVSS
binds	IL-7Rα_8 VHH (VHH, soluble VHH, detected with anti-His antibody) VHH: QVQLVESGGGLVQPGGSLRLSCAASGFTISSWSMKWVRQAPGKGPEWVSYISPGGGSLDYLDSVKGRFTISRDNAKNTVYLQMSNLKSEDTALYWCATGTGPTRGQGTQVTVSS
binds	IL-7Rα_12 VHH (VHH, soluble VHH, detected with anti-His antibody) VHH: QVQLVESGGGLVQPGGSLRLSCAASGFTISSRSMKWVRQAPGKGPEWVSYISPGGGTVDYQDSVKGRFTISRDNAKNTVYLQMSNLKSEDTALYWCATGTGPTRGRGTQVTVSS
binds	IL-7Rα_11 VHH (VHH, soluble VHH, detected with anti-His antibody) VHH: QVQLVESGGGLVQPGGSLRLSCEASGFTISSWSMKWVRQAPGKGPEWVSYISPGGGSLDYHHSVKGRFTISRDNARNTVYLQMSNLQSEDTALYWCATGTGETRGQGTQVTVSS
binds	IL-7Rα_15 VHH (VHH, soluble VHH, detected with anti-His antibody) VHH: QVQLVESGGGLVQPGGSLRLSCAASGFTISSWSMKWVRQAPGKGPEWVSYISPGGGSLDYHHSVKGRFTISRDNARNTVYLQMSNLQSEDTALYWCATGTGETRGQGTQVTVSS
binds	IL-7Rα_9 VHH (VHH, soluble VHH, detected with anti-His antibody) VHH: QVQLVESGGGLVQPGGSLRLSCAASGFTISTWSMKWVRQAPGKGPEWVSYISPGGTSLDYQDSVKGRFTISRDNAKNTVYLQMNNLKSEDTALYWCATGTGETRGQGTQVTVSS
binds	IL-7Rα_1 VHH (VHH, soluble VHH, detected with anti-His antibody) VHH: QVQLVESGGGLVQPGGSLRLSCAASGFTFSQRIMSWYRQAPGKERELVASISPFGDGTRYADSVKGRFTISRDNARNQLYLQMNTLKPEDTAVYYCNKRNLEISDDWGQGTQVTVSS
binds	IL-7Rα_5 VHH (VHH, soluble VHH, detected with anti-His antibody) VHH: QVQLVESGGGLVQPGGSLRLSCAASGFTFSQRIMSWYRQAPGKEHELVASISPFGDGTRYADSVKGRFTISRDNARNQLYLQMNSLEFEDTAVYYCNKRNLDVSDDWGQGTQVTVSS
binds	IL-7Rα_14 VHH (VHH, soluble VHH, detected with anti-His antibody) VHH: QVQLVESGGGLVQPGGSLRLSCAASGFTFSQRIMSWYRQAPGKERELVASVSPFGDGTRYADSVKGRFTISRDNAKSQLYLQMNNLKFEDTAVYYCNKRNLEISDAWGQGTQVTVSS
